Here are results for five molecules from US20060270591A1 (published 2006).

B2: AR-N (aa 36-553), in vitro translated (receptor)
chain: NPGPRHPEAASAAPPGASLLLLQQQQQQQQQQQQQQQQQQQQQETSPRQQQQQQGEDGSPQAHRRGPTGYLVLDEEQQPSQPQSALECHPERGCVPEPGAAVAASKGLPQQLPAPPDEDDSAAPSTLSLLGPTFPGLSSCSADLKDILSEASTMQLLQQQQQEAVSEGSSSGRAREASGAPTSSKDNYLGGTSTISDNAKELCKAVSVSMGLGVEALEHLSPGEQLRGDCMYAPLLGVPPAVRPTPCAPLAECKGSLLDDSAGKSTEDTAEYSPFKGGYTKGLEGESLGCSGSAAAGSSGTLELPSTLSLYKSGALDEAAAYQSRDYYNFPLALAGPPPPPPPPHPHARIKLENPLDYGSAWAAAAAQCRYGDLASLHGAGAAGPGSGSPSAAASSSWHTLFTAEEGQLYGPCGGGGGGGGGGGGGGGGGGGGGGGGEAGAVAPYGYTRPPQGLAGQESDFTAPDVWYPGGMVSRVPYPSPTCVKSEMGPWMDSYSGPYGDMRLETARDHVLPIDYYF
modifications: [35S]-methionine-labeled
notes: also called AR N-terminal

Test [1] addresses B2. The experiment in a line: GST pull-down.
Protocol: (§1) After several washes with NETN buffer [20 mM Tris/pH 8.0, 100 mM NaCl, 6 mM MgCL₂, 1.0 mM EDTA, 1.0 mM DTT, 0.5% (vol/vol) Nonidet P-40, 1 mM PMSF, and 8% glycerol], the bound proteins were separated on SDS-PAGE gel and visualized by PhosphorImager (Molecular Dynamics).
(§2) To confirm the interaction between ARA267 and AR that was shown in the yeast two-hybrid system, GST pull-down assay was applied to confirm and further map the interaction domains between ARA267 and AR.
In test [2] the target is T1, GST-ARA267N2 (ARA267 aa 1-984) (human, UniProt Q96L73 280-1253).
T1 sequence: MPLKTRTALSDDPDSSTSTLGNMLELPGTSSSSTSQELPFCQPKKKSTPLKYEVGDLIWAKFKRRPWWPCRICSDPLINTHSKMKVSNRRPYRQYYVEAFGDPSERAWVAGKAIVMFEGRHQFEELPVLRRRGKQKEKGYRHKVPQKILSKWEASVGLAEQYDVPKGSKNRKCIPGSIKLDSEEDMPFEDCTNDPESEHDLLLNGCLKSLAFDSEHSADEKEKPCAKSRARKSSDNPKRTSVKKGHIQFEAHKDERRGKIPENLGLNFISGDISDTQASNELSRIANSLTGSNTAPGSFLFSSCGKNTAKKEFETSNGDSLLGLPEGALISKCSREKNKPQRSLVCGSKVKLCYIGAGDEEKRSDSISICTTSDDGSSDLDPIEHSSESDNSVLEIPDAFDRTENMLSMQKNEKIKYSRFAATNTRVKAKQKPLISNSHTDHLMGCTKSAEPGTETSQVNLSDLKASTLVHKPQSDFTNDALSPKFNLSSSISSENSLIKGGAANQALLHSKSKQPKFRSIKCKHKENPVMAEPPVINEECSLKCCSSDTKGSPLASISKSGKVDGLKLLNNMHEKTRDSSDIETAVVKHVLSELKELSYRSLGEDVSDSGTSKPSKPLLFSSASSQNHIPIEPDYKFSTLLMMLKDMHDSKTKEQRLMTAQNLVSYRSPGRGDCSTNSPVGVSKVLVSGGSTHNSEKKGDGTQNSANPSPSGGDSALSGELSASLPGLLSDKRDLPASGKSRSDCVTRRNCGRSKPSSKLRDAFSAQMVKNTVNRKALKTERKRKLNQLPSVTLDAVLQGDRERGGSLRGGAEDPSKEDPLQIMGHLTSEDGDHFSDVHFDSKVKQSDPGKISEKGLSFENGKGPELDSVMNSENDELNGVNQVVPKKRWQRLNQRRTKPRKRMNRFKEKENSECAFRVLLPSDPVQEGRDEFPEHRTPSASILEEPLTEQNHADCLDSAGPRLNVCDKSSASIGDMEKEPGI
Kind of test: GST pull-down.
Protocol: as §1, §2

Test [3] deals with T2, GST-ARA267C (ARA267 aa 1716-2427) (human, UniProt Q96L73 1985-2696).
T2 sequence: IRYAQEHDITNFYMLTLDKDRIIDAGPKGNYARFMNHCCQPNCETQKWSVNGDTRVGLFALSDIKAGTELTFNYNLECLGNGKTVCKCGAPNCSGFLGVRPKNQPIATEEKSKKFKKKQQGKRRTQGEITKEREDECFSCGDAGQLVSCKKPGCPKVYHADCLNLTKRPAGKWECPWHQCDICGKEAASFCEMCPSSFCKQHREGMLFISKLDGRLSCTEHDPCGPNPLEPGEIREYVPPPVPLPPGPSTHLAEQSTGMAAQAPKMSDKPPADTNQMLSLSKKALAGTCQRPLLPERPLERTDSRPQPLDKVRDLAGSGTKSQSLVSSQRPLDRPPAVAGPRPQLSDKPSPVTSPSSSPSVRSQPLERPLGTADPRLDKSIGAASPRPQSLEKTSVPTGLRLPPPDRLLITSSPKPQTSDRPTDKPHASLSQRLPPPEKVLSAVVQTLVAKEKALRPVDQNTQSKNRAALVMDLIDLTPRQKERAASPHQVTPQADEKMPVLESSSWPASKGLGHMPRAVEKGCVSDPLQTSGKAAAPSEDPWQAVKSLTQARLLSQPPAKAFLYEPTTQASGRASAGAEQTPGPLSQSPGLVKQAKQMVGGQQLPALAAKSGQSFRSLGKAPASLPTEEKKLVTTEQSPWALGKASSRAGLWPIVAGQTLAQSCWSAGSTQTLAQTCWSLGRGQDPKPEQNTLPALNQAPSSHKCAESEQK
Kind of test: GST pull-down.
Protocol: as §1, §2

Test [4] deals with T3, androgen receptor (AR), full-length, human (human, UniProt P10275 1-920).
T3 sequence: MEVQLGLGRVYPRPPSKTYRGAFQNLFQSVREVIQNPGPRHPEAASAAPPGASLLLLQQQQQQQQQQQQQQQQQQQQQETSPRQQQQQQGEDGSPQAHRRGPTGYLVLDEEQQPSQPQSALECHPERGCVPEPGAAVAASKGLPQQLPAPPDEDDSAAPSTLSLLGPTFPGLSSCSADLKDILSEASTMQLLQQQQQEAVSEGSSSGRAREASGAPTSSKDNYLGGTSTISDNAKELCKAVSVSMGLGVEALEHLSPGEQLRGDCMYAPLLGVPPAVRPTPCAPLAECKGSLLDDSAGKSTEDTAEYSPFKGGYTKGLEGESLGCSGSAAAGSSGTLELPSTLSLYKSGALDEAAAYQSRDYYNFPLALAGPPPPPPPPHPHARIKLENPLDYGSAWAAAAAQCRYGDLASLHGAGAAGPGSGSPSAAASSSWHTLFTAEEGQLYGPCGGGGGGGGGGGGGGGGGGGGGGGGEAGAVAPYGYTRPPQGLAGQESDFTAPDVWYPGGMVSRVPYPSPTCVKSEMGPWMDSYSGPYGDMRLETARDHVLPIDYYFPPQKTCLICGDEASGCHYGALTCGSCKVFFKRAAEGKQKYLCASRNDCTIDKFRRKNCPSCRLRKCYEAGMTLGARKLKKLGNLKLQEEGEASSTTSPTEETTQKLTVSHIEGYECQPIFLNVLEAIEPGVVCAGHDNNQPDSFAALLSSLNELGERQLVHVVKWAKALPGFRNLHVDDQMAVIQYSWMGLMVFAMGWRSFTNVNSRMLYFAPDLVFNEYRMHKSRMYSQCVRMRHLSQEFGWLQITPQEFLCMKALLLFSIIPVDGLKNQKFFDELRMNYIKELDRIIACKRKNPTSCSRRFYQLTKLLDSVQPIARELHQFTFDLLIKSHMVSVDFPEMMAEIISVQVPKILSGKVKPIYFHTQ
The experiment in a line: cell-based or functional assay.

Test [5] deals with T4, GAL4 DBD fused with C-terminal fragment (aa 595-918) of wild-type AR (human, UniProt P04386 1-147 (Saccharomyces cerevisiae entry)).
T4 construct: range 1-147; also called pAS2-AR; pAS2-wtAR
Kind of test: yeast two-hybrid.

The target of test [6] is T5, GAL4 DBD fused with C-terminal fragment (aa 595-918) of mARt877s (human, UniProt P04386 1-147 (Saccharomyces cerevisiae entry)).
T5 construct: range 1-147; Yeast two-hybrid bait; the text also writes t877a in places; also called pAS2-mtARt877s; mtARt877s
The experiment in a line: yeast two-hybrid screen of prostate cDNA library.

Test [7] has as its target T6, GAL4 empty vector (GAL4 DBD alone) (UniProt P04386 1-147).
T6 construct: range 1-147; Control
Kind of test: mammalian two-hybrid, DU145, CAT.

B1: GST-ARA267N1 (ARA267 aa 1-382) (other, not shown: a dimerising Fc or GST)
chain: MPLKTRTALSDDPDSSTSTLGNMLELPGTSSSSTSQELPFCQPKKKSTPLKYEVGDLIWAKFKRRPWWPCRICSDPLINTHSKMKVSNRRPYRQYYVEAFGDPSERAWVAGKAIVMFEGRHQFEELPVLRRRGKQKEKGYRHKVPQKILSKWEASVGLAEQYDVPKGSKNRKCIPGSIKLDSEEDMPFEDCTNDPESEHDLLLNGCLKSLAFDSEHSADEKEKPCAKSRARKSSDNPKRTSVKKGHIQFEAHKDERRGKIPENLGLNFISGDISDTQASNELSRIANSLTGSNTAPGSFLFSSCGKNTAKKEFETSNGDSLLGLPEGALISKCSREKNKPQRSLVCGSKVKLCYIGAGDEEKRSDSISICTTSDDGSSDLDP
Take B1: the binding result in test [1] was “no binding”.

B2: the binding result in test [2] and in test [3] was “no binding” in each case.

B3: ARA70N (aa 1-401) with wild-type FXXLF, expressed from pSG5 (other)
chain: MNTFQDQSGSSSNREPLLRCSDARRDLELAIGGVLRAEQQIKDNLREVKAQIHSCISRHLECLRSREVWLYEQVDLIYQLKEETLQQQAQQLYSLLGQFNCLTHQLECTQNKDLANQVSVCLERLGSLTLKPEDSTVLLFEADTITLRQTITTFGSLKTIQIPEHLMAHASSANIGPFLEKRGCISMPEQKSASGIVAVPFSEWLLGSKPASGYQAPYIPSTDPQDWLTQKQTLENSQTSSRACNFFNNVGGNLKGLENWLLKSEKSSYQKCNSHSTTSSFSIEMEKVGDQELPDQDEMDLSDWLVTPQESHKLRKPENGSRETSEKFKLLFQSYNVNDWLVKTDSCTNCQGNQPKGVEIENLGNLKCLNDHLEAKKPLSTPSMVTEDWLVQNHQDPCKVE
Turning to B3, in test [4], the “AR transactivation (MMTV-LUC, COS-1, 10 nM T)” value is 310 fold.

B4: GAL4 AD fused C-terminal region of ARA54 (C'-ARA54, amino acids 361-474) (other)
chain: ANFNQSGNIADSSLSFTFTNSSNGPNLITTQTNSQALSQPIASSNVHDNFMNNEITASKIDDGNNSKPLSPGWTDQTAYNAFGITTGMFNTTTMDDVYNYLFDDEDTPPNPKKERNEYLQADEANKRLLDQRYGKRVIQKALEEMESKEWLEKNSKSCPCCGTPIEKLDGCNKMTCTGCMQYFCWICMGSLSRANPYKHFNDPGSPCFNRLFYAVDVDDDIWEDEVED
notes: range 768-881; Clone from the prostate cDNA library; also called pACT2-C'-ARA54
Take B4: the binding result in test [5] and in test [6] was “binds” throughout.

B5: VP16 AD fused full-length ARA55 (other)
chain: MPRSGAPKERPAEPLTPPPSYGHQPTGQSGESSGASGDKDHLYSTVCKPRSPKPAAPAAPPFSSSSGVLGTGLCELDRLLQELNATQFNITDEIMSQFPSSKVASGEQKEDQSEDKKRPSLPSSPSPGLPKASATSATLELDRLMASLPDFRVQNHLPASGPTQPPVVSSTNEGSPSPPEPTAKGSLDTMLGLLQSDLSRRGVPTQAKGLCGSCNKPIAGQVVTALGRAWHPEHFVCGGCSTALGGSSFFEKDGAPFCPECYFERFSPRCGFCNQPIRHKMVTALGTHWHPEHFCCVSCGEPFGDEGFHEREGRPYCRRDFLQLFAPRCQGCQGPILDNYISALSLLWHPDCFVCRECFAPFSGGSFFEHEGRPLCENHFHARRGSLCPTCGLPVTGRCVSALGRRFHPDHFACTFCLRPLTKGSFQERAGKPYCQPCFLKLFG
notes: also called VP16-ARA55
As to B5, the binding result in test [7] is listed as “no binding”.
